38 variants from the RNAGym collection of RNA variant scans (doi:10.7554/elife.80360) can be followed below.

First the molecules themselves.
B1: Hairpin Ribozyme (parent)
chain: GUCCUCUUUCACGUGCGCGUGAAAGAGAGAAGUGAACCAGAGAAACACACGUUGUGGUAUAUUACCUGGUA

The series covers variants of B1. Description: self-cleavage, relative activity (ratio to wild type); higher = more cleavage; co-transcriptional.
In the case of GUCCUCUUGCACGUGCGCGUGAAAGAGAGAAGUUAACCAGAGAAACACACGUUGUGGUAUAUUACCUGGUA [U9G G34U], the self-cleavage amounted to 1.15.

As for GGCCUCUUUCACGUGCGCGUGAAAGCGAGAAGUGAACCAGAGAAACACACGUUGUGGUAUAUUACCUGGUA [U2G A26C], the self-cleavage was determined as 0.153. On to GUCCUCUUUCACGUACGCGUGAAAGAGAGAAGUAAACCAGAGAAACACACGUUGUGGUAUAUUACCUGGUA [G15A G34A], for which the self-cleavage stood at 1.11.

On to GUCCUCUUUCACGUGCGCGUGAACGAGAGAAGUGAACCAGAGUAACACACGUUGUGGUAUAUUACCUGGUA [A24C A43U], for which the self-cleavage is 0.115. For GUCCUCUUUCCCGUGCGCGUGAAAGAGAAAAGUGAACCAGAGAAACACACGUUGUGGUAUAUUACCUGGUA [A11C G29A] the value was 0.128; for GUCCUCUUUCACGUGCGCGUGAAAGAGGGAAGUGAACCAGACAAACACACGUUGUGGUAUAUUACCUGGUA [A28G G42C], 0.47; for GUCCUCUUUCACGCGCGCGUGAAAGAGAGAAGUGAACCAGAGAAACACACGUUGUGCUAUAUUACCUGGUA [U14C G57C], 0.0473. For GUCCUCUUUCACGUGCGCGUGAAAGAGAGGAGUGAACCAGAGAACCACACGUUGUGGUAUAUUACCUGGUA [A30G A45C] the value was 0.267; for GUCCUCUUUCACGUGCGCGUGAAAGAGAGAAGUGAACGAGAGAAACACACGUUGUGGUAUAUUAACUGGUA [C38G C65A], 0.145; for GUCCUCUUUCACGUGCGCGUGAAAGAGAAAAGUGAACCAGAGAAACACACGUUGUGGUAUAUUACCUGGUU [G29A A71U], 0.126.

Regarding GUCCUAUUUCACGUGCGCGUGAAAGAGAGAAGUUAACCAGAGAAACACACGUUGUGGUAUAUUACCUGGUA [C6A G34U], the self-cleavage is 1. Next, AUCCUCUUUCACGUGCACGUGAAAGAGAGAAGUGAACCAGAGAAACACACGUUGUGGUAUAUUACCUGGUA [G1A G17A]: 0.0844. With GUCCUCUUUCACGUGCGCGUGAAAGAGAGAAGAGAACCAGAGAAACACACGUUGUGGUAUAAUACCUGGUA [U33A U62A], the self-cleavage came to 0.148. In the case of GUCAUCUUUCACGUGCGCGUGAAAGAGAGAAGUGAACCAGAGAAACACAGGUUGUGGUAUAUUACCUGGUA [C4A C50G], the self-cleavage was found to be 0.149. For GUCCUCUUUCACGGGCGCGUGAAAGAGAGAAGUGAACCAAAGAAACACACGUUGUGGUAUAUUACCUGGUA [U14G G40A], the self-cleavage amounted to 0.289. For GUCCUCUUUCACGUGCGGGCGAAAGAGAGAAGUGAACCAGAGAAACACACGUUGUGGUAUAUUACCUGGUA [C18G U20C] the value was 0.923. For GUCCUCUUUCACAUGCGCGUUAAAGAGAGAAGUGAACCAGAGAAACACACGUUGUGGUAUAUUACCUGGUA [G13A G21U], the self-cleavage was found to be 0.742. Next, GUCCUCUUUCACGUGCGCGUGAAAGAGAGAAGUGAACCAGAGAAACACACGUUGUGGUAUAUAACGUGGUA [U63A C66G]: 0.0954; GUCCUCUUUCACGUGCGCGUGACAGAGAGAAGUGAACCACAGAAACACACGUUGUGGUAUAUUACCUGGUA [A23C G40C]: 0.0333. For GUCCUCUUUCACGUGCGCGUGAAAGAUAGAAGUGAACCAGAGAAACACACGUUAUGGUAUAUUACCUGGUA [G27U G54A] the value was 0.26; for GUCCUCUUUCACGUGCGCGCGACAGAGAGAAGUGAACCAGAGAAACACACGUUGUGGUAUAUUACCUGGUA [U20C A23C], 0.648. Take GUCCUCUUUCACGUGCGCGUGAAAGAGAGAAGUGAACCAGAGAAGCACUCGUUGUGGUAUAUUACCUGGUA [A45G A49U]: the self-cleavage amounted to 0.172. For GUCCUCUUUCACGUGCGCGUAAAAGAGAGAAGUGAACCAGAGAAACACACGUUCUGGUAUAUUACCUGGUA [G21A G54C] the value was 0.293.

In the case of GUCCUCUUUCACGUGCGCGUAAAAGAGAGAAGUGAACCAGAGAAACACACGUUAUGGUAUAUUACCUGGUA [G21A G54A], the self-cleavage was 0.491. Next, GUCCUCUUUCACGUGCGCGUGAAAGAGAGAAGUGAAACAGAGAAACACACGUUGUGGAAUAUUACCUGGUA [C37A U58A]: 0.235; GUCCUCUUUCACGUACGCGUGAAAGAGAGAAGUGAACCAGAGAAACACACGUUGUGGUAUAGUACCUGGUA [G15A U62G]: 0.109. With GUCCUCUUUCACGUGUGCGUGAAAGAGAGAAGUGAACCAGAGAAACACACGUUGUGUUAUAUUACCUGGUA [C16U G57U], the self-cleavage is 0.266. Next, GUCCUCUUAAACGUGCGCGUGAAAGAGAGAAGUGAACCAGAGAAACACACGUUGUGGUAUAUUACCUGGUA [U9A C10A]: 0.743.

With GUUCUCUUUCACGUGCGCGUGAAAGAGAGAAGUGAACCAGAGAAACACACGUUGUGGCAUAUUACCUGGUA [C3U U58C], the self-cleavage came out at 0.738. Next, GUCCUCUUUCACAUACGCGUGAAAGAGAGAAGUGAACCAGAGAAACACACGUUGUGGUAUAUUACCUGGUA [G13A G15A]: 0.839. For GUCCUCUAUCACUUGCGCGUGAAAGAGAGAAGUGAACCAGAGAAACACACGUUGUGGUAUAUUACCUGGUA [U8A G13U] the value was 0.551; for GUCCUCUUUCACGUGCGCGUGAAAGAGAGAAGUGAUCCAGAGAAACACCCGUUGUGGUAUAUUACCUGGUA [A36U A49C], 0.214.

With GUCCUCUUUCACGUGCGCGUGAAAGAGAGAAGUGAACCAAAGAAACACACGUUGUGAUAUAUUACCUGGUA [G40A G57A], the self-cleavage was determined as 0.0955. Next, GUCCUCUGUCACGUGCGCGUGAAAGAGAGAAGUGAACCAGAGAAACACACGUUGCGGUAUAUUACCUGGUA [U8G U55C]: 0.232; GUCCUCUUCCACGUGCGCGUGAAAGAGAGAAGUGAACCAGAGAAACACACGUUGUGGGAUAUUACCUGGUA [U9C U58G]: 0.729. As for GUCCUCUUUCACGCGCGCGUGAAAGAGAGAAGUGAACCAGAGAAACACACGUUGUGGUCUAUUACCUGGUA [U14C A59C], the self-cleavage is 0.0922. Regarding GUCCUCUUUAACGUGCGCGUGAAAGAGAGAAGUGAAACAGAGAAACACACGUUGUGGUAUAUUACCUGGUA [C10A C37A], the self-cleavage came to 0.271. Next, CUCCUCUUUCACGUGCGCGUGAAAGAGAGAGGUGAACCAGAGAAACACACGUUGUGGUAUAUUACCUGGUA [G1C A31G]: 0.187.
